Measured values published in patent US20140193401A1 (published 2014).
Changes are numbered by the printed parent chain. Where two headings read alike, the source gives them in different places.

How the values were obtained:
[1] = target: T1, PTx-S1-220 (truncated PTx-S1, residues 1-220, strain Tohama I, variant B) (Bordetella pertussis, UniProt P04977 35-254)
T1 sequence: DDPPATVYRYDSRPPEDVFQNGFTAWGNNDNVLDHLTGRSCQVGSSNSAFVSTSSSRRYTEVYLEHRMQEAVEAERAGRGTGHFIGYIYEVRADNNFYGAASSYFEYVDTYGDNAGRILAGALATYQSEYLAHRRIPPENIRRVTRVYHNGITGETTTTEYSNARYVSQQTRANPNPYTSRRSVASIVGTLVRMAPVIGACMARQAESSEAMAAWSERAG

[2] = target: pertussis toxin subunit S2 (Bordetella pertussis, UniProt P04978 28-226); assay: Western blot of B-oligomer and PTx
[3] = target: pertussis toxin subunit S3 (Bordetella pertussis, UniProt P04979 29-227); assay: Western blot of B-oligomer and PTx
[4] = target: pertussis toxin subunit S4 (Bordetella pertussis, UniProt P0A3R5 43-152); assay: Western blot of B-oligomer and PTx
[5] = target: pertussis toxin subunit S5 (Bordetella pertussis, UniProt P04981 35-133); assay: Western blot of B-oligomer and PTx
[6] = target: full length PTx-S1 (1-235) protomer (Bordetella pertussis, UniProt P04977 35-269); assay: SPR (BIAcore 3000), mAb 1B7 immobilised on CM5 chip, toxin injected
[7] = target: T2, PTx-S1D (residues 1-220, D34E, I198V) (Bordetella pertussis, UniProt P04977 35-254); assay: as above
T2 chain: T1 sequence with D34E, I198V

[8] = target: T3, pertussis toxin holotoxin (Bordetella pertussis, UniProt P04977 35-269; P04978 31-226; P04979 32-227; P0A3R5 43-152; P04981 36-133); assay: as above
T3 construct: also called PTx; PT

[9] = target: pertussis toxin B-oligomer (Bordetella pertussis, UniProt P04978 31-226; P04979 32-227; P0A3R5 43-152; P04981 36-133); assay: as above
[10] = target: T4, PTx-S1A (residues 1-220, M194I) (Bordetella pertussis, UniProt P04977 35-254); assay: as above
T4 chain: T1 sequence with M194I

[11] = target: T5, PTx-S1 9K/129G (residues 1-220, R9K, E129G) (Bordetella pertussis, UniProt P04977 35-254); assay: as above
T5 chain: T1 sequence with R9K, E129G

[12] = target: T1, PTx-S1-220 (truncated PTx-S1, residues …); assay: as above
[13] = target: T3, pertussis toxin holotoxin; assay: competition ELISA (Friguet), 5 nM antibody with PT in solution, coated PT
PTx-S1-220 R146A = target: T6, PTx-S1-220 R146A (Bordetella pertussis, UniProt P04977 35-254); assay: SPR (BIAcore 3000), mAb 1B7 immobilised on CM5 chip, toxin injected
T6 chain: T1 sequence with R146A

PTx-S1-220 N150A = target: T7, PTx-S1-220 N150A (Bordetella pertussis, UniProt P04977 35-254); assay: as above
T7 chain: T1 sequence with N150A

B1: murine monoclonal antibody 1B7 (antibody, V domains shown)
VH: EVQLQQSGSELVRPGASVKLSCKASGYKFTSYWMHWVKQRPGQGLEWIGNIFPGSGSTNYDEKFNSKATLTVDTSSNTAYMQLSSLTSEDSAVYYCTRWLSGAYFDYWGQGTTLTVSS
VL: DIQMTQSPALMSASPGEKVTMTCSASSSVSFMYWYQQKPRSSPKPWIYLTSNLPSGVPARFSGSGSGTSYSLTISSMEAEDAATYYCQQWSSHPPTFGSGTKLEIKR
notes: also called mAb 1B7; 1B7 mAb
Question: B1 was tested. Which koff [1] did it give?
Answer: Its koff is 0.0019 s⁻¹.

Question: Does B1 bind [2]?
Answer: Result: no binding

Question: Does B1 bind [3]?
Answer: Result: no binding

Question: Does B1 bind [4]?
Answer: Result: no binding

Question: Does B1 bind [5]?
Answer: Result: no binding

Question: And the koff [6]?
Answer: Its koff is 0.0019 s⁻¹.

Question: And the koff [7]?
Answer: Its koff is 0.00095 s⁻¹.

Question: What about the koff [8] of the same binder?
Answer: Its koff is 0.0004 s⁻¹.

Question: And the koff [9]?
Answer: Its koff is 0.0027 s⁻¹.

Question: What about the koff [10] of the same binder?
Answer: The koff was 0.00071 s⁻¹.

Question: And the koff [11]?
Answer: Its koff is 0.0016 s⁻¹.

Question: And the koff [12]?
Answer: The koff was 0.0014 s⁻¹.

Question: And the Kd [13]?
Answer: The Kd was 1.1 nM.

Question: What about the koff (PTx-S1-220 R146A) of the same binder?
Answer: Its koff is 0.0015 s⁻¹.

Question: What about the koff (PTx-S1-220 N150A) of the same binder?
Answer: Its koff is 0.008 s⁻¹.
